In patent publication US20260266848A1, “COMPOSITIONS AND METHODS FOR DIAGNOSING AND TREATING DYSTONIA” (Duke University, priority 2023, published 2026):

Tests used:
[1] = system: DYT-TOR1A MEF EVs; test: Quantitative LC-MS/MS proteomics of EVs from drug-treated DYT-TOR1A MEF cultures (ritonavir, salubrinal); format: cell-based, mouse; parameters: key to RTV Corrective Direction / RTV Corrective Direction, Grwd1 / RTV Corrective Direction, Srrm2 / RTV Corrective Direction, Rbm17 / RTV Corrective Direction, Dcaf8 / RTV Corrective Direction, Edil3 / RTV Corrective Direction, Timp3 / RTV Corrective Direction, Heatr3 / RTV Corrective Direction, Brd4 / RTV Corrective Direction, P3h4 / RTV Corrective Direction, Pacsin3 / RTV Corrective Direction, Naa50 / RTV Corrective Direction, Lpar6 / RTV Corrective Direction, Ndrg1 / RTV Corrective Direction, Kntc1 / RTV Corrective Direction, Cdk11b / RTV Corrective Direction, Sumo1 / RTV Corrective Direction, Lsm4 / RTV Corrective Direction, Hmga2 / RTV Corrective Direction, Cstf1 / RTV Corrective Direction, Tes / RTV Corrective Direction, Sbno1 / RTV Corrective Direction, Unc119b / RTV Corrective Direction, Cfdp1 / RTV Corrective Direction, Sec61b: YES = protein abundance effect opposite to DYT/WT; settings: EV protein abundance; for RTV Corrective Direction: DYT + RTV (ritonavir) vs DYT, direction compared with DYT/WT; for DYT + RTV/DYT Cohen's d: ritonavir (RTV)-treated DYT vs DYT
[2] = system: WT MEF EVs; test: Quantitative LC-MS/MS proteomics of EVs from ISRIB-treated WT MEF cultures; format: cell-based, mouse; parameters: key to ISRIB and DYT Parallel Direction / ISRIB and DYT Parallel Direction, Ctdsp1 / ISRIB and DYT Parallel Direction, Pcdh19 / ISRIB and DYT Parallel Direction, Tspan7 / ISRIB and DYT Parallel Direction, Myo1e / ISRIB and DYT Parallel Direction, Plpp3 / ISRIB and DYT Parallel Direction, Sh3bp4 / ISRIB and DYT Parallel Direction, Dnajc7 / ISRIB and DYT Parallel Direction, Drg1 / ISRIB and DYT Parallel Direction, Maea: YES = protein abundance effect similar to DYT/WT; settings: EV protein abundance; for WT + ISRIB/WT Cohen's d: ISRIB-treated WT vs WT; for ISRIB and DYT Parallel Direction: WT + ISRIB vs WT, direction compared with DYT/WT

Molecule | RTV Corrective Direction [1] | DYT + RTV/DYT Cohen's d [1] | WT + ISRIB/WT Cohen's d [2] | ISRIB and DYT Parallel Direction [2]
Aldh2 (protein, UniProt P47738 20-519, looked up) Aldehyde dehydrogenase, …: SAAATSAVPAPNHQPEVFCNQIFINNEWHDAVSRKTFPTVNPSTGEVICQVAEGNKEDVDKAVKAARAAFQLGSPWRRMDASDRGRLLYRLADLIERDRTYLAALETLDNGKPYVISYLVDLDMVLKCLRYYAGWADKYHGKTIPIDGDFFSYTRHEPVGVCGQIIPWNFPLLMQAWKLGPALATGNVVVMKVAEQTPLTALYVANLIKEAGFPPGVVNIVPGFGPTAGAAIASHEGVDKVAFTGSTEVGHLIQVAAGSSNLKRVTLELGGKSPNIIMSDADMDWAVEQAHFALFFNQGQCCCAGSRTFVQENVYDEFVERSVARAKSRVVGNPFDSRTEQGPQVDETQFKKILGYIKSGQQEGAKLLCGGGAAADRGYFIQPTVFGDVKDGMTIAKEEIFGPVMQILKFKTIEEVVGRANDSKYGLAAAVFTKDLDKANYLSQALQAGTVWINCYDVFGAQSPFGGYKMSGSGRELGEYGLQAYTEVKTVTVKVPQKNS | YES | 18.21 | −7.25 | YES
Slc9a1 (protein, UniProt Q61165 1-820, looked up) Sodium/hydrogen exchanger 1: MMLRWSGVWGFHPPRIFPSLLVVVALVGLLPVLRSHGLQHSPTASTIRGSEPPRERSIGDVTTAPSEPLHRPDDHNLTNLIIEHGGKPSRKAFPVLDIDYPHVRTPFEISLWILLACLMKIGFHVIPTISSIVPESCLLIVVGLLVGGLIKGVGETPPFLQSDVFFLFLLPPIILDAGYFLPLRQFTENLGTILIFAVVGTLWNAFFLGGLLYAVCLVGGEQINNIGLLDTLLFGSIISAVDPVAVLAVFEEIHINELLHILVFGESLLNDAVTVVLYHLFEEFASYDSVGISDIFLGFLSFFVVALGGVFVGVVYGVIAAFTSRFTSHIRVIEPLFVFLYSYMAYLSAELFHLSGIMALIASGVVMRPYVEANISHKSHTTIKYFLKMWSSVSETLIFIFLGVSTVAGSHQWNWTFVISTLLFCLIARVLGVLVLTWFINKFRIVKLTPKDQFIIAYGGLRGAIAFSLGYLLDKKHFPMCDLFLTAIITVIFFTVFVQGMTIRPLVDLLAVKKKQETKRSINEEIHTQFLDHLLTGIEDICGHYGHHHWKDKLNRFNKKYVKKCLIAGERSKEPQLIAFYHKMEMKQAIELVESGGMGKIPSAVSTVSMQNIHPKAVTSDRILPALSKDKEEEIRKILRSNLQKTRQRLRSYNRHTLVADPYEEAWNQMLLRRQKARQLEQKITNYLTVPAHKLDSPTLSRARIGSDPLAYEPKADLPVITIDPASPQSPESVDLVNEELKGKVLGLNRGPRVTPEEEEEDEDGIIMIRSKEPSSPGTDDVFTPGSSDSPSSQRIQRCLSDPGPHPEPGEGEPFIPKGQ | YES | −2.60 | 0.44 | YES
Steap3 (protein, UniProt Q8CI59 1-488, looked up) Metalloreductase STEAP3: MSGEMDKPLISRRLVDSDGSLAEVPKEAPKVGILGSGDFARSLATRLVGSGFSVVVGSRNPKRTAGLFPSLAQVTFQEEAVSSPEVIFVAVFREHYSSLCSLADQLAGKILVDVSNPTEKEHLQHRQSNAEYLASLFPACTVVKAFNVISAWALQAGPRDGNRQVLICSDQPEAKRTISEMARAMGFTPLDMGSLASAREVEAIPLRLLPSWKVPTLLALGLFVCFYTYNFIRDVLQPYIRKDENKFYKMPLSVVNTTLPCVAYVLLSLVYLPGVLAAALQLRRGTKYQRFPDWLDHWLQHRKQIGLLSFFFAMLHALYSFCLPLRRSHRYDLVNLAVKQVLANKSRLWVEEEVWRMEIYLSLGVLALGMLSLLAVTSLPSIANSLNWKEFSFVQSTLGFVALILSTMHTLTYGWTRAFEENHYKFYLPPTFTLTLLLPCVIILAKGLFLLPCLSRRLTKIRRGWEKDGAVKFMLPGDHTQGEKTSHV | YES | 1.81 | −3.91 | YES
Ankfy1 (protein, UniProt Q810B6 2-1169, looked up) Rabankyrin-5: AEEEVAKLEKHLMLLRQEYVKLQKKLAETEKRCTLLAAQANKENSNESFISRLLAIVAGLYEQEQYSDLKIKVGDRHISAHKFVLAARSDSWSLANLSSTEEIDLSDANPEVTMTMLRWIYTDELEFREDDVFLTELMKLANRFQLQLLRERCEKGVMSLVNVRNCIRFYQTAEELNASTLMNYCAEIIASHWDDLRKEDFSSLSAQLLYKMIKSKTEYPLHKAIKVEREDVVFLYLIEMDSQLPGKLNETDHNGDLALDLALSRRLESIATTLVSHKADVDMVDKNGWSLLHKGIQRGDLFASTFLIKNGALVNAATAGAQETPLHLVALYSPKKYSADVMSEMAQIAEALLQAGANPNMQDSKGRTPLHLSIMARNDCVFSQLLQCKQLDLELKDHEGSTALWLAVQYITVSSDQSVNPFEDLPVVNGTSFDENSFAARLIQRGSNTDAPDVMTGNCLLQRAAGAGNEAAALFLATSGAHANHRNKWGETPLHTACRHGLANLTAELLQQGANPNLQTEEALPVPKESPVLMSSADSIYLQTPLHMAIAYNHPDVVSVILEQKANALHATNNLQIIPDFSLKDSRDQTVLGLALWTGMHTIAAQLLGSGASINDTMSDGQTLLHMAIQRQDSKSALFLLEHQADINVRTQDGETALQLAIKHQLPLVVDAICTRGADMSVPDEKGNPPLWLALASNLEDIASTLVRHGCDATCWGPGPSGCLQTLLHRAVDENNESTACFLIRSGCDVNSPRQPGTNGEGEEEARDGQTPLHLAASWGLEETVQCLLEFGANVNAQDAEGRTPVHVAISNQHSVIIQLLISHPNIELSVRDRQGLTPFACAMTYKNNKAAEAILKRESGAAEQVDNKGRNFLHVAVQNSDIESVLFLISVQANVNSRVQDASKLTPLHLAVQAGSEIIVRNLLLAGAKVNELTKHRQTALHLAAQQDLPTICSVLLENGVDFAAVDENGNNALHLAVMHGRLNNIRALLTECTVDAEAFNLRGQSPLHILGQYGKENAAAIFDLFLECMPEYPLDKPDAEGNTVLLLAYMKGNANLCRAIVRSGVRLGVNNNQGVNIFNYQVATKQLLFRLLDMLSKEPPWCDGSNCYECTAKFGVTTRKHHCRHCGRLLCHKCSTKEIPIIKFDLNKPVRVCNICFDVLTLGGVS | YES | 2.86 | −1.45 | YES
Nif3l1 (protein, UniProt Q9EQ80 1-376, looked up) NIF3-like protein 1: MLSSAHLVPTSVQRAQSWICRSSRSFMDLKALLSSLNDFASLSFAESWDNVGLLVEPSPPHTVNTLFLTNDLTEEVMDEALQKKADFILSYHPPIFRPMKHITWKTWKECLVIRALENRVAVYSPHTAYDAAPQGVNSWLAKGLGTCTTRPIHPSRAPDYPTEGAHRLEFSVNRSQDLDKVMSTLRGVGGVSVTSFPARCDGEEQTRISLNCTQKTLMQVLAFLSQDRQLYQKTEILSLEKPLLLHTGMGRLCTLDESVSLAIMIERIKTHLKLSHLRLALGVGRTLESQVKVVALCAGSGGSVLQGVEADLYLTGEMSHHDVLDAASKGINVILCEHSNTERGFLSELQEMLGVHFENKINIILSETDRDPLRVV | YES | 1.58 | −3.93 | YES
Nectin2 (protein, UniProt Q92692 32-538, looked up) Nectin-2: QDVRVQVLPEVRGQLGGTVELPCHLLPPVPGLYISLVTWQRPDAPANHQNVAAFHPKMGPSFPSPKPGSERLSFVSAKQSTGQDTEAELQDATLALHGLTVEDEGNYTCEFATFPKGSVRGMTWLRVIAKPKNQAEAQKVTFSQDPTTVALCISKEGRPPARISWLSSLDWEAKETQVSGTLAGTVTVTSRFTLVPSGRADGVTVTCKVEHESFEEPALIPVTLSVRYPPEVSISGYDDNWYLGRTDATLSCDVRSNPEPTGYDWSTTSGTFPTSAVAQGSQLVIHAVDSLFNTTFVCTVTNAVGMGRAEQVIFVRETPNTAGAGATGGIIGGIIAAIIATAVAATGILICRQQRKEQTLQGAEEDEDLEGPPSYKPPTPKAKLEAQEMPSQLFTLGASEHSPLKTPYFDAGASCTEQEMPRYHELPTLEERSGPLHPGATSLGSPIPVPPGPPAVEDVSLDLEDEEGEEEEEYLDKINPIYDALSYSSPSDSYQGKGFVMSRAMYV | YES | 3.32 | −1.19 | YES
Txnl1 (protein, UniProt O43396 2-289, looked up) Thioredoxin-like protein 1: VGVKPVGSDPDFQPELSGAGSRLAVVKFTMRGCGPCLRIAPAFSSMSNKYPQAVFLEVDVHQCQGTAATNNISATPTFLFFRNKVRIDQYQGADAVGLEEKIKQHLENDPGSNEDTDIPKGYMDLMPFINKAGCECLNESDEHGFDNCLRKDTTFLESDCDEQLLITVAFNQPVKLYSMKFQGPDNGQGPKYVKIFINLPRSMDFEEAERSEPTQALELTEDDIKEDGIVPLRYVKFQNVNSVTIFVQSNQGEEETTRISYFTFIGTPVQATNMNDFKRVVGKKGESH | YES | 1.99 | −0.66 | YES
